Where two headings read alike, the source gives them in different places.
How the values were obtained:
[1] = target: T1, PrP^Sc, pathogenic form of the human prion protein (from CJD brain homogenate) (human), P04156
[2] = target: T1, PrP^Sc, pathogenic form of the human …; remark: listed apart in the source
[3] = target: T1, PrP^Sc, pathogenic form of the human …; remark: listed apart in the source
[4] = target: T1, PrP^Sc, pathogenic form of the human …; remark: listed apart in the source

## GGGKKRPKPGG (modifications not checked) [peptide of SEQ ID NO: 68]
[1]
  Mean (% of 68): 100%
  Mean (ELISA signal): 85 RLU
[2]
  Exp. Mean (ELISA signal): 853 RLU
  Exp. Mean (as % of 68): 100%
[3]
  Mean (ELISA signal): 138 RLU
[4]
  Exp. Mean (ELISA signal): 418 RLU
  Exp. Mean (as % of 68): 100%

From patent publication US20120027677A1
